In article PMC9503769, “Development and Evaluation of a Peptide Heterodimeric Tracer Targeting CXCR4 and Integrin αvβ3 for Pancreatic Cancer Imaging” (Pharmaceutics, 2022):
Where a SMILES comes first, the peptide text is derived from it. [ ]: non-standard residue; d: D form. The star is where a group is joined. X1 = O=C(O)CN1CCN(CC(=O)O)CC(Cc2ccc(NC(=S)*)cc2)N(CC(=O)O)CC1; 2Nal = N[C@@H](Cc1ccc2ccccc2c1)C(=O)O; dNMeK = CN[C@H](CCCCN)C(=O)O

How the values were obtained:
[1] = Stability in PBS (radio-HPLC); format: physicochemical; settings: 1.85 MBq in 300 μL, 2 h, 37 °C
Description: (§1) The ^68Ga-yG5-RGD (1.85 MBq, 5 μL) or ^68Ga-yG5 (1.85 MBq, 5 μL) was separately added to 300 μL of PBS or normal human fresh serum, incubated for 2 h at 37 °C. After incubation, the PBS sample was subjected to HPLC for radiochemical purity under the conditions described above. An equal volume of anhydrous acetonitrile was added to serum sample, mixed, and then centrifuged at 13,000 g for 10 min to fully precipitate protein. Following this, the supernatant was collected and authenticated by HPLC.

[2] = format: in vitro ADME, human
Description: as §1

[3] = format: physicochemical
Description: ^68Ga-yG5-RGD, ^68Ga-yG5, or ^68Ga-RGD (740 kBq each) were separately added to a mixture of 1.0 mL n-octanol and 1.0 mL PBS, and then the mixtures were thoroughly vortexed for 5 min. Each sample was then centrifuged at 8000 rpm for 4 min. Each sample (100 μL) in organic phase and aqueous phase was collected separately in tubes, 5 tubes for each phase. Radioactive counts per tube of samples were measured by gamma counter, and logP values were calculated by the following formula: logP = log10 (counts in n-octanol/counts in PBS).

[4] = tested on: BxPC3 cells; experiment: Cell uptake in BxPC3 cells; format: cell-based, human; settings: 74 kBq/well, 30 min, 1 h and 2 h, all p < 0.001, n = 3
Description: (§2) BxPC3 cells in the logarithmic growth phase were harvested, counted, and seeded onto 24-well plate with 2 × 10^5 cells/well and cultured overnight. The original culture medium was discarded and fresh DMEM (serum and antibiotic-free) was then added to continue culturing for 0.5 h. Subsequently, each well was separately added ^68Ga-yG5-RGD, ^68Ga-yG5, or ^68Ga-RGD (74 kBq/well, 50 μL) and incubated for 30 min, 1 h, and 2 h (three replicate wells/each time point). At the end of incubation, the supernatant and the cell lysate were separately collected and radioactivity was measured by gamma counter. The cell uptake was expressed as the percentage of total applied radioactivity. Cell uptake study experiment was also performed using MX-1 as a control group for ^68Ga-yG5-RGD. The detailed experimental procedure was the same as above.

[5] = tested on: MX-1 cells; experiment: Cell uptake in MX-1 cells (negative control); format: cell-based, human; settings: all time points, all p < 0.001
Description: as §2

[6] = tested on: BxPC3 cells; experiment: Cell blocking experiment in BxPC3 cells; format: cell-based, human; settings: co-incubated with 1000-fold molar excess of unlabeled RGD, AMD3100 or AMD3100 + RGD, all p < 0.001
Description: BxPC3 was used for cell blocking experiments. One group was taken as a control and added only ^68Ga-yG5-RGD (74 kBq/well, 50 μL, 1 pmol). Other groups were incubated with the blocking agents (AMD3100, RGD, AMD3100 + RGD unlabeled, 1000 pmol/10 μL, and ^68Ga-yG5-RGD (74 kBq/well, 50 μL). The rest of the procedures were carried out as described above.

[7] = in vivo; set-up: species or system BALB/c nude mice; settings: female, BALB/c nude, mouse, iv, total radioactivity
Description: All animal studies were conducted in accordance with the guidelines of the Institutional Animal Care and Use Committee of Tongji Medical College of Huazhong University of Science and Technology (2021-S2875; 1 February 2021). Female BALB/c nude mice (5–6 weeks old) were purchased from Beijing HFK Bioscience Co., Ltd. (Beijing, China) and were raised in a specific pathogen-free barrier system. For subcutaneous tumor xenograft model, 1 × 10^7 cells of BxPC3 or MX-1 in 100 μL PBS were injected into the right flanks of nude mice. Animal models were used for follow-up experiments when tumors reached 8~10 mm in diameter. The group setting was kept consistent with PET/CT scan. Each group of mice (n = 4) was injected via tail vein with probes (5.55~7.4 MBq, 150 μL) or co-injected with probes and blockers (10 mg/kg). Mice were euthanized by cervical dislocation under anesthesia 2 h post-injection. Subsequently, tissues of interest were collected, washed, weighed, and counted by a gamma counter. After decay correction, uptake of tissues was expressed as the percentage of injected dose per gram of tissue (%ID/g).

SMILES	proportion of intact tracer [1]	metabolic-free Gallium-68 observed [2]	log P [3]	cellular uptake in BxPC3 cells [4]	cellular uptake in MX-1 cells [5]	cellular uptake in BxPC3 cells with blockers [6]	tissue to tissue ratio at 2 h ([7]; tumor/blood uptake ratio)	tissue to tissue ratio at 2 h ([7]; tumor/kidney uptake ratio)	tissue to tissue ratio at 2 h ([7]; tumor/liver uptake ratio)	tissue to tissue ratio at 2 h ([7]; tumor/muscle uptake ratio)
CN1C(=O)[C@@H](Cc2ccc(O)cc2)NC(=O)CNC(=O)[C@H](Cc2ccc3ccccc3c2)NC(=O)[C@H](CCCNC(=N)N)NC(=O)[C@H]1CCCCNC(=O)C(CCn1nnc2c1CCC1C(CC2)C1COC(=O)NCCOCCOCCOCCOCCC(=O)NCCCC[C@@H]1NC(=O)[C@@H](Cc2ccc(O)cc2)NC(=O)[C@H](CC(=O)O)NC(=O)CNC(=O)[C@H](CCCNC(=N)N)NC1=O)N1CCN(CC(=O)O)CCN(CC(=O)O)CC1 (some centres unmarked) [^68Ga-yG5-RGD, metal not drawn]	greater than 99%	less than 1%	−2.47 ± 0.04	significantly higher than that of ^68Ga-RGD and ^68Ga-yG5	significantly lower than that of BxPC3 cells	significantly decreased	14.5 ± 0.8	0.9 ± 0.29	0.46 ± 0.1	13.6 ± 0.81
CN1C(=O)[C@@H](Cc2ccc(O)cc2)NC(=O)CNC(=O)[C@H](Cc2ccc3ccccc3c2)NC(=O)[C@H](CCCNC(=N)N)NC(=O)[C@H]1CCCCNC(=S)Nc1ccc(CC2CN(CC(=O)O)CCN(CC(=O)O)CCN2CC(=O)O)cc1 (some centres unmarked) [^68Ga-yG5, metal not drawn] (cyclo([2Nal]G[dY][dNMeK](X1)R))			−0.35 ± 0.09				2.01 ± 0.43	0.34 ± 0.06	0.13 ± 0.04	3.86 ± 1.29
N=C(N)NCCC[C@@H]1NC(=O)[C@H](CCCCNC(=S)Nc2ccc(CC3CN(CC(=O)O)CCN(CC(=O)O)CCN3CC(=O)O)cc2)NC(=O)[C@@H](Cc2ccc(O)cc2)NC(=O)[C@H](CC(=O)O)NC(=O)CNC1=O (some centres unmarked) [^68Ga-RGD, metal not drawn, reference compound]			−3.22 ± 0.02				10.8 ± 2.04	0.77 ± 0.06	0.96 ± 0.15	8.61 ± 0.61
